{"source": "paper PMC5187861", "experiment_in_all_cases": "yeast two-hybrid, quantitative β-galactosidase assay", "key": {"[1]": {"molecular_target": "HK1a receiver domain (HK1a-RD), LexA-based two-hybrid bait", "conditions": "HK1a-RD as bait, HPt as prey, mean of at least four independent assays in triplicate, standard error bars, read off a plot"}, "[2]": {"molecular_target": "HK1b receiver domain (HK1b-RD), LexA-based two-hybrid bait", "conditions": "HK1b-RD as bait, HPt as prey, standard error bars, read off a plot"}, "[3]": {"molecular_target": "HK1a cytoplasmic part (HK1a-CP), LexA-based two-hybrid bait", "conditions": "HK1a-CP as bait, HPt as prey, mean of at least four independent assays in triplicate, standard error bars, read off a plot"}, "[4]": {"molecular_target": "HK1b cytoplasmic part (HK1b-CP), LexA-based two-hybrid fusion", "conditions": "HK1b-CP as bait, HPt as prey, standard error bars, read off a plot"}}, "data": [{"substance": "HPt1, histidine-containing phosphotransfer protein 1 (two-hybrid prey) K33L; R74K; S77A", "values": [{"measurement": "response (β-Galactosidase units)", "setting": "[1]; parent: est. 19", "value": 33}, {"measurement": "response (β-Galactosidase units)", "setting": "[2]; parent: est. 11", "value": 16}, {"measurement": "response (β-Galactosidase units)", "setting": "[3]; parent: est. 4.2", "value": 5.5}, {"measurement": "response (β-Galactosidase units)", "setting": "[4]; parent: est. 2.3", "value": 3.7}]}, {"substance": "HPt2, histidine-containing phosphotransfer protein 2 (two-hybrid prey) L32K; K73R; A76S", "values": [{"measurement": "response (β-Galactosidase units)", "setting": "[1]; parent: est. 120", "value": 95}, {"measurement": "response (β-Galactosidase units)", "setting": "[2]; parent: est. 240", "value": 210}, {"measurement": "response (β-Galactosidase units)", "setting": "[3]; parent: est. 71", "value": 32}, {"measurement": "response (β-Galactosidase units)", "setting": "[4]; parent: est. 11", "value": 7}]}]}
